Source: patent publication US20220135655A1 (Dana-Farber, published 2022)

Target: A/California/04/2009 (H1CA0409) recombinant HA (influenza A virus A/California/04/2009, UniProt P26140 18-529)
Experiment: phage display panning (immunotube) against trimeric HA

Binder	binding result
1H2 (scFv) scFv: QVQLVQSGAEVKKPGSSVKVSCKASGGPFRSYAISWVRQAPGQGLEWMGGIIPIFGTANYAQKFQGRVTITADESTSTAYMELSSLRSEDTAVYYCARGGVYSFDVWGQGTLVTVSSGGGSGGGSGGGSGGGSQSGLTQPPSASGTPGQRVTISCSGSGSNVGSNVVNWYQHLPGTAPKLLIYRNNQRPSGVPDRFSGSKSGTSASLAISGLQSEDEADYYCAAWDDRLNGFVFGTGTKVTVL	binds
1F5 (scFv) scFv: QVQLVQSGAEVKKPGSSVKVSCKASGGTFSSYAISWVRQAPGQGLEWMGGISPIFGTANYAQKFQGRVTITSDESTSTAYMELSSLRSEDTAVYYCARDQGGTRGNYFDVWGQGTLVTVSSGGGSGGGSGGGSGGGSQPVLTQPPSVSKGLRQTATVTCTGNSNNVGNQGAAWLQQHQGHPPKLLSYRNNNRPSGISERLSASRSGNTASLTIAGLQPEDEADYYCSAWDNTVSGWVFGGGTRVTVL	binds
1F6 (scFv) scFv: QVQLVQSGAEVKKPGSSVKVSCKASGGTFSSYAISWVRQAPGQGLEWMGGIITIFGTANYAQKFQGRVTITADESTNTAYMELSSLRSEDTAVYYCARGGGGRFDVWGQGTLVTVSSGGGSGGGSGGGSGGGSSYELTQPPSVSGTPGQRVTISCSGSTSNIGNNALNWYQKLPGTAPKLLIYSLNQRPSGVPDRFSGSKSGTSASLAISGLQSEDEADYYCEAWDDSLSGPVFGGGTKVTVL	binds
1H4 (scFv) scFv: QVQLVQSGAEVKKPGSSVKVSCKASGVPFSSYAISWVRQAPGQGLEWMGGISPLFGTANYAQKFQGRVTITADQSTSTVYMELSSLRSEDTAVYYCARGLGTYSPSLYPRGMDVWGQGTLVTVSSGGGSGGGSGGGSGGGSLPVLTQPPSASGTPGQSVTISCSGSSSNIGRNDVNWYQQFPGRAPKLLIYGRDERPFGVPARFSGSKSGTSASLAISGLQSEDEADYYCAAWDASLMIYVFGTGTTVTVL	binds
1F12 (scFv) scFv: QVQLVQSGAEVKKPGSSVKVSCKASGGIFSSYAISWVRQAPGQGLEWMGGITPIFGTANYAQKFQGRVTITADESTRTAYMELSSLRSEDTAVYYCARDLSRDSLNLPGSSPGYDLWGQGTLVTVSSGGGSGGGSGGGSGGGSETTLTQSPGTLSLSPGERATLSCRASQSVSSNLAWYQQKPGQAPRLLIYGASTRATGIPARFSGSGSGTEFTLTISSLQSEDFAVYYCQQYSSSPYTFGQGTKLEIK	binds
1F1 (scFv) scFv: QVQLVQSGAEVKKPGSSVKVSCKASGGTFSSYAISWVRQAPGQGLEWMGGISAIFGTANYAQKFQGRVTITADESTRTAYMELSSLRSEDTAVYYCARGSGYYVAASGAFDVWGQGTLVTVSSGGGSGGGSGGGSGGGSQPGLTQPPSVSKGLRQTATLTCTGNINNVGDQGAGWLQQHQGRPPKLLSYRNSNRPSGVSERFSASRSGNTASLTITGLQPEDEADYYCSAWDSSLSDWVFGGGTKLTVL	binds
1F3 (scFv) scFv: QVQLVQSGAEVKKPGSSVKVSCKASGVIFSSYAISWVRQAPGQGLEWMGGISPIFGTANYAQKFQGRVTITADESTSTAYMELSSLRSEDTAVYYCARSRGYAPGTSFHYDVWGQGTLVTVSSGGGSGGGSGGGSGGGSLPVLTQAPSMSVAPGKTASITCGGDNIGSKSVHWYQQKPGQAPVLVMYYDSDRPSGIPERFSGSNSGNTATLTISRVEAGDEADYFCQLWDHTNSHVVFGGRTKLTVL	binds
1E6 (scFv) scFv: QVQLVQSGAEVKKPGSSVKVSCKASGVTFSSYAISWVRQAPGQGLEWMGGISPIFGTANYAQKFQGRVTITADESTSTAYMELSSLRSEDTAVYYCARGREYYASNGDSFDVWGQGTLVTVSSGGGSGGGSGGGSGGGSQPVLTQPPSVSVAPGKTASISCEGNNIATKSVHWYQQKSGHAPVVVVYHDSDRPSGVPDRFSGSKSGTSASLAISGLRSEDEADYYCAAWDDSLSGPWVFGGGTKLTVL	binds
